Test results: patent publication US20240166738A1 (Alector, published 2024)
Where a chain is given by its changes, count along the chain named.

B1: TM-45 (antibody, V domains shown)
VH: QVQLQQSGAELAKPGASVKLSCKASGYTFTNYWMHWVKKRPGQGLEWIGYINPSSGYTKYNQKFKDKATLTADKSSNTAYMQLSSLTYEDSAVYYCTREGGSISDWYFDVWGTGTTVTVSS
VL: DIVMTQAAPSLPVTPGESVSISCRSSKSLLHSNGNTYLYWFLQRPGQSPQLLIYRMSNLASGVPDRFSGSGSGTAFTLRISRVEAEDVGVYYCMQHLEYPYTFGGGTKLEIK
B2: TM-42 (antibody, V domains shown)
VH: B1 VH
VL: B1 VL
B3: TM-64 (antibody, V domains shown)
VH: QVQLQQPGAELVKPGASVKLSCKASGYTFTSYWMHWVKQRPGHGLEWIGNIDPSDSDTHYNQNFRGKATLTVDKFSTTAYMHLSSLTSEDSAVYYCARSRGGTYDYGEAMDYWGQGTSVTVSS
VL: B1 VL with L11V, S32T, Y39F, Q47R, Y101F, G105S
B4: TM-78 (antibody, V domains shown)
VH: QVQLQQPGAELVKPGASVKLSCKASGYTFTNHWMHWVRQRPGQGLEWIGNIDPSDSDTHYNHKFKDKATLIVDKSSSTAYLQLSSLTSEDSAVFYCARSRGGYYDYGEAMDYWGQGTSVTVSS
VL: B1 VL with A8T, L11I, S32V, Y39F, Y101F, G105S
B5: TM-80 (antibody, V domains shown)
VH: QVQLQQPGAELVKPGASVKLSCKASGYTFTTFWMHWVKQRPGQGLEWIGNIDPSDSETHYNQEFKDKATLTVDRSSNTAYMQLSSLTSEDSAVYYCARSSNWDNFDYWGQGTAVTVSS
VL: B1 VL with L11V, K27Q, S32V, N35H, A75V, A85T, V90I, E98Q, Y101F, G105S
B6: TM-59 (antibody, V domains shown)
VH: B1 VH with T30I, N31S, K39Q, I51V, Y60N, N77S, T97A
VL: B1 VL with L11V, L38S
B7: TM-37 (antibody, V domains shown)
VH: B1 VH with N31S, K39Q, I51V, Y60N, A68V, N77S, T97A
VL: B1 VL with L11V, L38S
B8: TM-35 (antibody, V domains shown)
VH: QVQLQQSGPELVRPGTSVKISCKAPGYTFTRHWMQWVRQRPGQGLEWIGEILPGSNNIYYNEKVKGKATLTVDTSSSTSYMQLSSLTSEDSAVYFCARSLYDYDGVFAYWGQGTLVTVSA
VL: DVLMTQIPLSLPVSLGDQASISCRSSQSIVHRNGNTYLEWYLQKPGQSPKLLIYKVSNRFSGVPDRFSGSGSGTDFTLKISRVEAEDLGVYYCFQGSHVPYTFGGGTKLEIK
B9: TM-32 (antibody, V domains shown)
VH: EVQLQQSGAELVRPGASVRLSCIASGFNIKDYYMYWVKQRPEQGLEWIGRIDPEDGDTEYVPKFQGKATMTADTSSNTAYLQLSSLTSEDIGVYYCTTRTWDLYYAVDNWGQGTSVTVSS
VL: B8 VL with I7T, S28N, R32S, Y54D, V90I, Y101F, G105S
B10: TM-1 (antibody, V domains shown)
VH: QVQLQQSGAELVRPGTSVKVSCKASGYAFTNYLIEWVKQRPGQGLEWIGVINPGSGGTKYNEKLKGKATLTADKSSSTAYMQLSSLTSVDSAVYFCARRGYTIYDFYAMDYWGQGTSVTVSS
VL: B8 VL with I7T, Q18H, H31Y, R32N, G96V, Y101F, G105S
B11: TM-60 (antibody, V domains shown)
VH: QVQLQQSGPELVKPGASVKLSCKASGYTFTSYDINWVKQRPGQGLEWIGWIYPRDGNTQYIEKLKGKATLTVDTSSSTAYMELHSLTSEDSAVYFCARWIFYAMDYWGQGTSVTVSS
VL: B8 VL with I7T, R32G, V99L
B12: TM-30 (antibody, V domains shown)
VH: QVQLQQSGPELVKPGASVKLSCKASDNTFTNYDVNWVRQRPGQGLEWIGWIYPRDGTTIYNEKFKGRATLTVDTSSSTAYMELHSLTSEDSAVFFCARTLPQAMDYWGQGTSVTVSS
VL: B8 VL with I7S, A19V, S28T, V99L, Y101W
B13: TM-54 (antibody, V domains shown)
VH: QVQMQQSGPVLVKPGASVTLSCKASGYTFTTYDLNWVKQRPGQGLEWIGWIYPRGGSTEYNEKFKGKATLTVDTSSSTAYMELHSLTSEDSAVYFCAKYSIYAMDYWGQGTSVTVSS
VL: B8 VL with I7T, R32G, Y101W, I111M
B14: TM-48 (antibody, V domains shown)
VH: B11 VH
VL: B8 VL with I7T, D17N, R32G, V99L
B15: TM-88 (antibody, V domains shown)
VH: EAQLQQSGPVLVKPGASVKMSCKTSGYTFTDYYINWVKQSHGKSLEWIGVINPYSGATYYTQKFKGKATLTVDKSSSTAYMELNSQTSEDSAVYYCARGGYDYGHWYFDVWGTGTTVTVSS
VL: ETTVTQSPASLSMAIGEKVTIRCITSSDIDDHMNWYRQKPGEPPEFLISEGNALRPGVPSRFSSSGYGTDFIFTIENILSEDVADYYCLQSDNLPLTFGAGTKLELK
B16: TM-63 (antibody, V domains shown)
VH: B5 VH with P14F, T31S, N61S, E63K, M81I, A113T
VL: DIVMTQASPSVSVTPGESVSISCRSSQSLLHVNGNTYLYWFLQRPGRSPRLLIYRMSNLASGVPDRFSGSGSGTAFTLRISRVEAEDVGVYYCMQHLQYPFSFGSGTKLEMK
B17: TM-13 (antibody, V domains shown)
VH: QVQLQQSGAELVKPGASVKMSCKASGYTFTTFPIEWMKQSHGKGLEWIGNFHPYNDDTKYNEKFKGKATLTVDKSSSTVYLDLSRLTSDDSAVYYCARYFYGGMDYWGQGTSVTVSS
VL: DIQMTQSPASLSVSVGETVTITCRASENIYSSLGWYQQKQGESPQLLVFAATNLADGVPSRFSGSGSGTQYSLKINSLQSEDFGTYYCQHLWSIPWTFGGGTRLEIK
B18: TM-84 (antibody, V domains shown)
VH: B17 VH with S40N, G44S, D73E, D82E
VL: B17 VL with Q37H, E42K, I94V, R103K
B19: TM-76 (antibody, V domains shown)
VH: QVTLKESGPGILQPSQTLSLTCSFSGFSLSTSGMGVSWIRKPSGKGLEWLAHIFWDDDKRYNLFLKSRLTVSKDTSSNQVFLMITSVDTTDTATYYCARMGRQRDYFDYWGQGTSLTVSS
VL: QIILTQSPAIMSASLGEEITLTCSASLSISYVHWYQQKSGASPKLLIYGTSNLASGVPSRFSGSGSGTFYSLTISSVEAEDAADYYCHQWSIYRTFGGGTKLEMK
B20: TM-86 (antibody, V domains shown)
VH: EVQLQQSGPVLVKPGASVKMSCKASGYTFTDYYIHWVKQSHGRSLEWIGVISPYNDNTNYNQKFKGKATLTVDKSSSTAYMELNSLTSEDSAVYYCVRTYYSNYFDYWGQGTTLTVSS
VL: DIVMTQSPSSLSVSAGEKVTMSCKSSQSLLNSGNQKNYLAWHQQRPGQPPKLLIYGASTRESGVPDRFTGSGSGTEFTLTISSVQAEDLAVYYCQNDHSYPLTFGAGTKLELK
B21: TM-28 (antibody, V domains shown)
VH: EVQLQQSGPVLVKPGPSVKISCMASVFTFNDYYIHWVKQSHGKSLEWIGLVYPYNGGTNYNQNFKGKATLTVDTSSRTAYMELNSLTSEDSAVYYCARSYFSNPIGYWGQGTLVTVSE
VL: B20 VL with A15V, M21V, H42Y, R45K, E76D
B22: TM-7 (antibody, V domains shown)
VH: EVQLQQSGPVLVKPGPPVKISCKASGFTFTDYYIHWVKLSHGKSLEWIGLVYPYNGDTDYNQKFKGKATLTVDTSSSTAYMELNSLTSEDSAVYYCARTYYANSPDYWGQGTTVTVSS
VL: B20 VL with K36R, H42Y, R45K, E76D, S83N
B23: TM-5 (antibody, V domains shown)
VH: QVQLQQSGTELARPGASVKVSCKASGYIFTTYGITWVKQRGGQGLEWIGEIYPRSDNTYYNEKFKDKATLTADKSSSTAYMELRSLTSEDSAVYFCARSKGSGTGDYWGQGTTVTVSS
VL: DIQMTQSPASLSASVGETVTITCRASENIYIYLAWYQQKQGKTPQLLVYNGKMLAENVPSRFSGSGSGTQFSLKINSLQPEDFGSYYCQHHYGSPPAFGAGTKLELK
B24: TM-18 (antibody, V domains shown)
VH: EVRLQQSGPELVKPGASVKISCKTSGYTFTDYYMNWVKQSHGKSLEWIVNINPNNGDAFYNQKFKGKATLTVDKSSNTAYLDLRSLTSEDSAVYYCAREGQLRLRRVYAMDYWGQGTSVTVSS
VL: DIVLAQSPASLAVSLGQRATISCRASKSVSISVYTYVHWYQQKPGQPPKLLIYLASNLESGVPARFSGSGSGTDFTLNIHPVEEEDAATYYCQHSRELPYTFGGGTKLEIK
B25: TM-15 (antibody, V domains shown)
VH: QVQLQQPGAEFVRPGASVKLSCKASGYTFTNYWITWVKQRPGHGLEWIGDIYPGSGNSNYNESFKRKATLTVDTSSSTAYMHLSSQTSEDSAVYFCARKAYGGFPYWGQGTLVTVSA
VL: DIQMTQSPASLSVSVGETVTITCRVSENIYNNLAWYQQKQEKSPQLLVFAATNLADGVPSRFSGSGSGTQFSLKINSLQSEDFGTYYCQHFWDTPFTFGSGTKLEIK

Target: human TMEM106B (human, UniProt Q9NUM4 2-274)
Test: cell-based or functional assay
Further: test concentration or dose not given here.

In order of falling “% Protection from CPE” value:
1. B9  105%
2. B12  104%
3. B24  100%
4. B11  94.2%
5. B6  92.3%
6. B4  91.1%
7. B20  90.5%
8. B8  90.4%
9. B7  90.2%
10. B3  89.3%
11. B14  89.3%
12. B16  89.3%
13. B19  89.2%
14. B21  85.4%
15. B17  81.8%
16. B15  78.5%
17. B5  78%
18. B13  68.1%
19. B25  63.5%
20. B23  63.3%
21. B18  53.1%
22. B1  32.6%
23. B2  28.4%
24. B22  15.8%
25. B10  6.4%
